From patent publication US20240166737A1

Legend:
recombinant CD3 = recombinant CD3 (UniProt P07766); assay: SPR
[1] = molecular target: CD3 epsilon on human T-cells (human) (UniProt P07766); assay: T cell binding
CD3 epsilon on human T-cells (human), sequence (P07766 23-207 limits assumed): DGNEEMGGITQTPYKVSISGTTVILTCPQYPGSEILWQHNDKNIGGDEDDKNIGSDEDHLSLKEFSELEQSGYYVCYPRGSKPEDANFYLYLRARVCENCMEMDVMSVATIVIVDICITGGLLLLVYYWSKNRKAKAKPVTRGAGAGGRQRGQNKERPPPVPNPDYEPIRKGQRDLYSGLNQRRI

recombinant CD3, sequence (P07766 23-126): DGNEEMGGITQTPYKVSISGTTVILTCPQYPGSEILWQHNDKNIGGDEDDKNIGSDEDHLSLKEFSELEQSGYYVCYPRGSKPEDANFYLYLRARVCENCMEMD

B1: CD3B450-LH-ScFv (scFv, V domains shown, not shown: small tags and cut ends)
VH: QVQLQQSGPGLVKPSQTLSLTCAISGDSVFNNNAAWSWIRQSPSRGLEWLGRTYYRSKWLYDYAVSVKSRITINPDTSKNQFSLQLNSVTPEDTAVYYCARGYSSSFDYWGQGTLVTVSS
VL: QSALTQPASVSGSPGQSITISCTGTSSNIGTYKFVSWYQQHPGKAPKVMIYEVSKRPSGVSNRFSGSKSGNTASLTISGLQAEDEADYYCVSYAGSGTLLFGGGTKLTVL
Kd (recombinant CD3): 50 to 100 nM
EC50 [1]: > 300 nM
